Measurements: patent US20050260657A1 (UNIVERSITY OF TOKYO, published 2005)

B1: MBP-ERp44 (maltose binding protein fused ERp44) (other, mouse, UniProt Q9D1Q6 30-406, looked up, not shown: large carriers)
chain: EIASLDSENIDEILNNADVALVNFYADWCRFSQMLHPIFEEASDVIKEEYPDKNQVVFARVDCDQHSDIAQRYRISKYPTLKLFRNGMMMKREYRGQRSVKALADYIRQQKSNPVHEIQSLDEVTNLDRSKRNIIGYFEQKDSENYRVFERVASILHDDCAFLSAFGDLSKPERYNGDNVIYKPPGRSAPDMVYLGSMTNFDVTYNWIQDKCVPLVREITFENGEELTEEGLPFLILFHMKDDTESLEIFQNEVARQLISEKGTINFLHADCDKFRHPLLHIQKTPADCPVIAIDSFRHMYVFGDFKDVLIPGKLKQFVFDLHSGKLHREFHHGPDPTDTAPGEQDQDVASSPPESSFQKLAPSEYRYTLLRDRDEL

How the values were obtained:
[1] = target: IP3R1 of mouse cerebellar microsomes in planar lipid bilayer (mouse, UniProt P11881 1-2749); experiment: cell-based or functional assay
Chain of IP3R1 of mouse cerebellar microsomes in planar lipid bilayer (P11881 whole entry, the tested form may be a part): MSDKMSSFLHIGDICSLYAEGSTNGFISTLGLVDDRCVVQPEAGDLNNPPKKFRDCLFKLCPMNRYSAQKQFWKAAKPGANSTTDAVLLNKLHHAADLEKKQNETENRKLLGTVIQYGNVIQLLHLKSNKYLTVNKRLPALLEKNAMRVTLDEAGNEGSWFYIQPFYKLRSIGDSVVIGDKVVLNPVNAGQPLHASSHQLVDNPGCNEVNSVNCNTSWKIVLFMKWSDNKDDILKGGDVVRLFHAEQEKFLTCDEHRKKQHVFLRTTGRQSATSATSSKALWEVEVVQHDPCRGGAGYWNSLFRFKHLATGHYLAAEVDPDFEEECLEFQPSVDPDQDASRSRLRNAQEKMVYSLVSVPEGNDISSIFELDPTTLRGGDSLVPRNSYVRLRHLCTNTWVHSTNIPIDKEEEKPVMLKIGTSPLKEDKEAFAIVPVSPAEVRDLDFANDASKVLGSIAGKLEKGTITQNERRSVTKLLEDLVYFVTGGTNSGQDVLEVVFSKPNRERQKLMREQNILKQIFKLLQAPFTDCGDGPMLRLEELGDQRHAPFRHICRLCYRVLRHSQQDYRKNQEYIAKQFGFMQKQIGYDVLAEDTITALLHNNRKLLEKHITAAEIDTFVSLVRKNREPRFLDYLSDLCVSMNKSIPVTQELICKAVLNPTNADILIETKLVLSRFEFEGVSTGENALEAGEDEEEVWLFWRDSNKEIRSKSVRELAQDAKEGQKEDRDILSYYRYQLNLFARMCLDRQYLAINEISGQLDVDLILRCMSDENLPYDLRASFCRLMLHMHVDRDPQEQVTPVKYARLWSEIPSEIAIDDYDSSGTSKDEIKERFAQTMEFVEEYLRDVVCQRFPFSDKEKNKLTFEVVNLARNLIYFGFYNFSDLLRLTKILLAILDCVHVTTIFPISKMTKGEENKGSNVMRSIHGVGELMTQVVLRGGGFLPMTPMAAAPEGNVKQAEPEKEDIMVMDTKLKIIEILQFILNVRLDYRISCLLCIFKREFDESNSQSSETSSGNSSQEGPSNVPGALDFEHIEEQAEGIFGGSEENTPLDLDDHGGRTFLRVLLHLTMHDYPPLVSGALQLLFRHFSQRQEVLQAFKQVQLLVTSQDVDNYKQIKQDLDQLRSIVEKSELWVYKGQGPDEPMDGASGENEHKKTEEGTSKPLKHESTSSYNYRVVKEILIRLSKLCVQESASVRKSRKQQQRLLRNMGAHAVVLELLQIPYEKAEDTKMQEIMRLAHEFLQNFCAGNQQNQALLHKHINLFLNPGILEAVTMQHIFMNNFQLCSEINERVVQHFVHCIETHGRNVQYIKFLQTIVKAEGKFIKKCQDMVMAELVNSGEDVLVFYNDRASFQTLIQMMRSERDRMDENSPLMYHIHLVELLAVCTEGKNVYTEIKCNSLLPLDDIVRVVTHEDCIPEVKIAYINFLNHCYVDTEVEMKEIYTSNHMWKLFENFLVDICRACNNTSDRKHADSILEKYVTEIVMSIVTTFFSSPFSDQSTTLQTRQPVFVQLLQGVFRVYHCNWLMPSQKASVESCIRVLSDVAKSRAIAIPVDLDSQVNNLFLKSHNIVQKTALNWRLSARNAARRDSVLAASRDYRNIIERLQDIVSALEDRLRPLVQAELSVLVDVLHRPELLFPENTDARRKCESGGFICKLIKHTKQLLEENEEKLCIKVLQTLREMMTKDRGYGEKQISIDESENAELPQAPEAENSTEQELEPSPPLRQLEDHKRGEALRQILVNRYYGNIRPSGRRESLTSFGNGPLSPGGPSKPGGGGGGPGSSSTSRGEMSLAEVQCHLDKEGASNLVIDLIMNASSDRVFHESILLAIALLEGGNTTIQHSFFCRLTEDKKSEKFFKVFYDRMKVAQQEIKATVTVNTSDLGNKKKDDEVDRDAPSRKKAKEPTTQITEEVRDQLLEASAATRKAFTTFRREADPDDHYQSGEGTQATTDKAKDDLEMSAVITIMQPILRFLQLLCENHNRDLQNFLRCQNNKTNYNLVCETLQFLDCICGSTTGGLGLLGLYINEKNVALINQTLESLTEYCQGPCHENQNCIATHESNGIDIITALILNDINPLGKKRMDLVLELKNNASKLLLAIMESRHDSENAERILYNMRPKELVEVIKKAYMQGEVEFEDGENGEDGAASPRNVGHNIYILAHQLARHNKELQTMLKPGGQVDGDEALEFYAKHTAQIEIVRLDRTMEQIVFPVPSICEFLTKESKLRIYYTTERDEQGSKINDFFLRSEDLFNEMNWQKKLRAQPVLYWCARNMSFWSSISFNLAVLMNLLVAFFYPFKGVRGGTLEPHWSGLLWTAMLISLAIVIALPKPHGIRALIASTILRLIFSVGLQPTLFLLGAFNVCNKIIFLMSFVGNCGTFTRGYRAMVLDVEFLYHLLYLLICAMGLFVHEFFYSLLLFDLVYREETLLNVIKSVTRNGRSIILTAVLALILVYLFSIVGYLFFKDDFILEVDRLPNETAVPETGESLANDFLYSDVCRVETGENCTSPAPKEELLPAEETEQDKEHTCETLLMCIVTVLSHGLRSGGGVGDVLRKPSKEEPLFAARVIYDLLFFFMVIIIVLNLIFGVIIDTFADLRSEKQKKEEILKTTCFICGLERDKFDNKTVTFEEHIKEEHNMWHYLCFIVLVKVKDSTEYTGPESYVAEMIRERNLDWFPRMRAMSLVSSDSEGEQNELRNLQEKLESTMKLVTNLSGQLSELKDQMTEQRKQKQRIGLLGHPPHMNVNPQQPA

[2] = target: T1, GFP-IP3R1 (IP3R1 fused N-terminally with green fluorescent protein) (UniProt P11881 1-2749); experiment: co-immunoprecipitation from COS-7 cells exposed to ATP (activator of purinergic receptors), DSP crosslink
T1 construct: Expressed in COS-7 or DT40-TKO cells; also called GFP-IP3R1-N; not shown: green fluorescent protein

[3] = target: T2, IP3R1 (inositol 1,4,5-trisphosphate receptor type 1), untagged, expressed in cells (mouse, UniProt P11881 1-2749); experiment: interaction in transfected cells; data not shown
T2 construct: whole, on cells; ER membrane channel; species is printed for the DT40-KMN60 line, not for the COS-7 vector; also called mouse IP3R1 in DT40-KMN60 cells

[4] = target: MBP (maltose binding protein alone) (UniProt P0AEX9 27-392 = MBP); experiment: GST pull-down, pH 5.2, 4 mM Ca2+
[5] = target: B1; experiment: GST pull-down, acid buffer with Ca2+

B1
Single-channel open probability (IC50) [1]: 1000 nM

B2: HA-ERp44 (haemagglutinin A epitope-tagged ERp44) (other, mouse, UniProt Q9D1Q6 30-406, looked up, not shown: small tags and cut ends)
chain: EIASLDSENIDEILNNADVALVNFYADWCRFSQMLHPIFEEASDVIKEEYPDKNQVVFARVDCDQHSDIAQRYRISKYPTLKLFRNGMMMKREYRGQRSVKALADYIRQQKSNPVHEIQSLDEVTNLDRSKRNIIGYFEQKDSENYRVFERVASILHDDCAFLSAFGDLSKPERYNGDNVIYKPPGRSAPDMVYLGSMTNFDVTYNWIQDKCVPLVREITFENGEELTEEGLPFLILFHMKDDTESLEIFQNEVARQLISEKGTINFLHADCDKFRHPLLHIQKTPADCPVIAIDSFRHMYVFGDFKDVLIPGKLKQFVFDLHSGKLHREFHHGPDPTDTAPGEQDQDVASSPPESSFQKLAPSEYRYTLLRDRDEL
notes: whole, on cells; tagged vectors made by PCR
fold increase of GFP-IP3R1 co-precipitated with HA-ERp44 after the treatment against untreated cells [2]: ~2 fold

B3: ERp44-C58S (other, UniProt Q9D1Q6 30-406, looked up)
chain: EIASLDSENIDEILNNADVALVNFYADWSRFSQMLHPIFEEASDVIKEEYPDKNQVVFARVDCDQHSDIAQRYRISKYPTLKLFRNGMMMKREYRGQRSVKALADYIRQQKSNPVHEIQSLDEVTNLDRSKRNIIGYFEQKDSENYRVFERVASILHDDCAFLSAFGDLSKPERYNGDNVIYKPPGRSAPDMVYLGSMTNFDVTYNWIQDKCVPLVREITFENGEELTEEGLPFLILFHMKDDTESLEIFQNEVARQLISEKGTINFLHADCDKFRHPLLHIQKTPADCPVIAIDSFRHMYVFGDFKDVLIPGKLKQFVFDLHSGKLHREFHHGPDPTDTAPGEQDQDVASSPPESSFQKLAPSEYRYTLLRDRDEL
notes: whole, on cells
binding result [3]: binds

B4: GST-1L3V (glutathione S-transferase fused L3V domain of IP3R1) (other, not shown: a dimerising Fc or GST; large carriers; small tags and cut ends)
chain: KDDFILEVDRLPNETAVPETGESLANDFLYSDVCRVETGENCTSPAPKEELLPAEETEQDKEHTCE
notes: Expressed in E. coli, purified on GSH-Sepharose; also called GST-L3V
binding result [4]: no binding | binding result [5]: binds
